Drawing on the RNAGym collection of RNA variant scans (doi:10.7554/elife.80360), this text covers self-cleavage for 38 variants.

The labels stand for the following.
B1: Hairpin Ribozyme (parent)
chain: GUCCUCUUUCACGUGCGCGUGAAAGAGAGAAGUGAACCAGAGAAACACACGUUGUGGUAUAUUACCUGGUA

This series covers variants of B1. Kind of series: self-cleavage, relative activity (ratio to wild type); higher = more cleavage; co-transcriptional.
As for GUCCUCUUUCACGUGCGCGUGAAAGAGAGAAGUGACCCAGAGAAACACACGUUGUGGUAUAUUACCUGGUG [A36C A71G], the self-cleavage is 0.303.

GUCCUCUUUCACGUGCGCGUGAAAGAGAGAAGUGUACCAGAGAAACACACGUUGUGGUAAAUUACCUGGUA [A35U U60A]: the self-cleavage was 0.426.

As to GUCCUCUUUCACGUGCGCGUGAAAGAGAGAAGUGACCCAGAGAAACACACGUUGUGGUAUAUUGCCUGGUA [A36C A64G], the self-cleavage was 0.281.

Turning to GUCCUCUUUCACGUGCGCGUGAAAGAGAGAAGUGUACCAGAGAAACACACGUUGUGGUAUAUUACCUGGAA [A35U U70A], the self-cleavage was found to be 0.703.

As to GUCCUCUUUCACGUGCGCGUGAAAGAGAGAAGUGUACCAGAGAAACACACGUUGUGGUAUAUUACCUGGCA [A35U U70C], the self-cleavage turned out to be 0.702.

In the case of GUCCUCUUUCACGUGCGCGUGAAAGAGAGAAGUGACCCAGAGAAACACACGUUGUGUUAUAUUACCUGGUA [A36C G57U], the self-cleavage is 0.264.

Turning to GUCCUCUUUCACGUGCGCGUGAAAGAGAGAAGUGACCCAGAGAAUCACACGUUGUGGUAUAUUACCUGGUA [A36C A45U], the self-cleavage came to 0.124.

For the variant GUCCUCUUUCACGUGCGCGUGAAAGAGAGAAGUGACCCAGAGAAACACACGUUGUGGUAUUUUACCUGGUA [A36C A61U], the self-cleavage came out at 0.162.

Regarding GUCCUCUUUCACGUGCGCGUGAAAGAGAGAAGUGUACCAGAGAAACACACGUUGUGGUAUAUCACCUGGUA [A35U U63C], the self-cleavage is 0.152.

Take GUCCUCUUUCACGUGCGCGUGAAAGAGAGAAGUGACCCAGAGAAACACACGUUGUGGUAUAUUACGUGGUA [A36C C66G]: the self-cleavage turned out to be 0.131.

As to GUCCUCUUUCACGUGCGCGUGAAAGAGAGAAGUGACCCAGAGAAACACACGUUGUGGUAUAUUACCUGGCA [A36C U70C], the self-cleavage was 0.607.

Turning to GUCCUCUUUCACGUGCGCGUGAAAGAGAGAAGUGUACCAGAGAAACACGCGUUGUGGUAUAUUACCUGGUA [A35U A49G], the self-cleavage is 0.31.

As for GUCCUCUUUCACGUGCGCGUGAAAGAGAGAAGUGUACCAGAGAAACACACGUUGUGGUAUAUUACCUGGUC [A35U A71C], the self-cleavage was 1.57.

Regarding GUCCUCUUUCACGUGCGCGUGAAAGAGAGAAGUGAGCCAGUGAAACACACGUUGUGGUAUAUUACCUGGUA [A36G A41U], the self-cleavage turned out to be 1.31.

As to GUCCUCUUUCACGUGCGCGUGAAAGAGAGAAGUGUACCAGAGAAACACACGUCGUGGUAUAUUACCUGGUA [A35U U53C], the self-cleavage amounted to 1.04.

Consider GUCCUCUUUCACGUGCGCGUGAAAGAGAGAAGUGUACCAGAGAAACACACGUGGUGGUAUAUUACCUGGUA [A35U U53G], for which the self-cleavage came to 0.429.

Consider GUCCUCUUUCACGUGCGCGUGAAAGAGAGAAGUGACGCAGAGAAACACACGUUGUGGUAUAUUACCUGGUA [A36C C37G], for which the self-cleavage amounted to 0.215.

As to GUCCUCUUUCACGUGCGCGUGAAAGAGAGAAGUGACCCAGAGCAACACACGUUGUGGUAUAUUACCUGGUA [A36C A43C], the self-cleavage was found to be 0.07.

In the case of GUCCUCUUUCACGUGCGCGUGAAAGAGAGAAGUGACCCAGAGUAACACACGUUGUGGUAUAUUACCUGGUA [A36C A43U], the self-cleavage was found to be 0.126.

As for GUCCUCUUUCACGUGCGCGUGAAAGAGAGAAGUGACCCAGACAAACACACGUUGUGGUAUAUUACCUGGUA [A36C G42C], the self-cleavage amounted to 0.245.

Turning to GUCCUCUUUCACGUGCGCGUGAAAGAGAGAAGUGGACCAGAGAAACACACGUUGUGGUAAAUUACCUGGUA [A35G U60A], the self-cleavage worked out at 1.11.

Regarding GUCCUCUUUCACGUGCGCGUGAAAGAGAGAAGUGACCCCGAGAAACACACGUUGUGGUAUAUUACCUGGUA [A36C A39C], the self-cleavage is 0.216.

As for GUCCUCUUUCACGUGCGCGUGAAAGAGAGAAGUGUACCAGAGAAACACACGUUGUGGUAUAUUACGUGGUA [A35U C66G], the self-cleavage is 0.0865.

Regarding GUCCUCUUUCACGUGCGCGUGAAAGAGAGAAGUGUACCAGAGAAACACACGUUGUGGUAUAUUACUUGGUA [A35U C66U], the self-cleavage was 0.151.

For GUCCUCUUUCACGUGCGCGUGAAAGAGAGAAGUGACCCAGAGAAACACACGUUGUUGUAUAUUACCUGGUA [A36C G56U], the self-cleavage was found to be 0.216.

GUCCUCUUUCACGUGCGCGUGAAAGAGAGAAGUGACCCAGAGAAACACACGUUGUCGUAUAUUACCUGGUA [A36C G56C]: the self-cleavage turned out to be 0.186.

For the variant GUCCUCUUUCACGUGCGCGUGAAAGAGAGAAGUGACCCAGAGAAACACACGUUGUAGUAUAUUACCUGGUA [A36C G56A], the self-cleavage worked out at 0.09.

For the variant GUCCUCUUUCACGUGCGCGUGAAAGAGAGAAGUGUACUAGAGAAACACACGUUGUGGUAUAUUACCUGGUA [A35U C38U], the self-cleavage amounted to 0.216.

Take GUCCUCUUUCACGUGCGCGUGAAAGAGAGAAGUGUACAAGAGAAACACACGUUGUGGUAUAUUACCUGGUA [A35U C38A]: the self-cleavage is 0.135.

Turning to GUCCUCUUUCACGUGCGCGUGAAAGAGAGAAGUGAGCCCGAGAAACACACGUUGUGGUAUAUUACCUGGUA [A36G A39C], the self-cleavage is 0.218.

Take GUCCUCUUUCACGUGCGCGUGAAAGAGAGAAGUGACCCAGAGAAACACACGUUGUGGUAUAUAACCUGGUA [A36C U63A]: the self-cleavage stood at 0.0749.

GUCCUCUUUCACGUGCGCGUGAAAGAGAGAAGUGACCCAGGGAAACACACGUUGUGGUAUAUUACCUGGUA [A36C A41G]: the self-cleavage turned out to be 0.894.

With GUCCUCUUUCACGUGCGCGUGAAAGAGAGAAGUGUACCAGAGAAACACACGUUGUGGUAUAUUAUCUGGUA [A35U C65U], the self-cleavage amounted to 0.223.

In the case of GUCCUCUUUCACGUGCGCGUGAAAGAGAGAAGUGUACCAGAGAAACACACGUUGUGGUAUAUUAGCUGGUA [A35U C65G], the self-cleavage was determined as 0.204.

Take GUCCUCUUUCACGUGCGCGUGAAAGAGAGAAGUGUACCAGAGAAAGACACGUUGUGGUAUAUUACCUGGUA [A35U C46G]: the self-cleavage amounted to 0.146.

Regarding GUCCUCUUUCACGUGCGCGUGAAAGAGAGAAGUGUACCAUAGAAACACACGUUGUGGUAUAUUACCUGGUA [A35U G40U], the self-cleavage was determined as 0.134.

For GUCCUCUUUCACGUGCGCGUGAAAGAGAGAAGUGUACCAGAGAAACACACUUUGUGGUAUAUUACCUGGUA [A35U G51U], the self-cleavage came to 0.794.

Take GUCCUCUUUCACGUGCGCGUGAAAGAGAGAAGUGUACCAGAGAAACACACCUUGUGGUAUAUUACCUGGUA [A35U G51C]: the self-cleavage came to 0.484.
